For test [1], the target named is T1, human BimEL (Bcl-2-Interacting Mediator of cell death, Extra Long isoform) (human, UniProt O43521 1-198, phosphorylated in cells after PMA treatment (Ser69, Ser93, Ser94, Ser98 as the filing reports)).
T1 construct: 198 aa protein, GenBank AAC39593; also called HA-BimEL WT; wild-type BimEL
The test can be described thus: co-immunoprecipitation with FLAG resin from HEK293 cells expressing FLAG-tagged F-box proteins, immunoblot for BimEL. The procedure:
For these binding studies, HEK293 cells were transfected with the indicated FLAG-tagged Fbw family F-box protein constructs (in FIG. 1). Twenty-four hours after transfection cells were treated for 3 hours with PMA (20 nM) and the proteasome inhibitor MG132 (10 μM) then harvested and lysed. Whole cell extracts (WCE) were subjected to immunoprecipitation using FLAG resin (α-FLAG), followed by immunoblotting with indicated antibodies (EV: empty vector).

Test [2] deals with T2, HA-BimEL (S94/98A) mutant (human, UniProt O43521 1-198).
T2 construct: HA-tagged, expressed in HEK293
The experiment in a line: co-immunoprecipitation with HA resin from transfected HEK293 cells (FIG. 2A). The procedure:
Twenty-four hours after transfection, cells were treated for 3 hours with PMA and MG 132. Whole cell extracts (WCE) were subjected to immunoprecipitation using HA resin (α-HA) followed by immunoblotting with indicated antibodies.

B1: human β-TrCP1 (beta-transducin repeat containing protein 1) (other)
chain: MDPAEAVLQEKALKFMCSMPRSLWLGCSSLADSMPSLRCLYNPGTGALTAFQNSSEREDCNNGEPPRKIIPEKNSLRQTYNSCARLCLNQETVCLASTAMKTENCVAKTKLANGTSSMIVPKQRKLSASYEKEKELCVKYFEQWSESDQVEFVEHLISQMCHYQHGHINSYLKPMLQRDFITALPARGLDHIAENILSYLDAKSLCAAELVCKEWYRVTSDGMLWKKLIERMVRTDSLWRGLAERRGWGQYLFKNKPPDGNAPPNSFYRALYPKIIQDIETIESNWRCGRHSLQRIHCRSETSKGVYCLQYDDQKIVSGLRDNTIKIWDKNTLECKRILTGHTGSVLCLQYDERVIITGSSDSTVRVWDVNTGEMLNTLIHHCEAVLHLRFNNGMMVTCSKDRSIAVWDMASPTDITLRRVLVGHRAAVNVVDFDDKYIVSASGDRTIKVWNTSTCEFVRTLNGHKRGIACLQYRDRLVVSGSSDNTIRLWDIECGACLRVLEGHEELVRCIRFDNKRIVSGAYDGKIKVWDLVAALDPRAPAGTLCLRTLVEHSGRVFRLQFDEFQIVSSSHDDTILIWDFLNDPAAQAEPPRSPSRTYTYISR
notes: also called Fbp1
B1: the binding result in test [1] is recorded as “binds”; in test [2], “no binding”.

The values above are taken from patent US20090318535A1 (NEW YORK UNIVERSITY, published 2009).
